From paper PMC11533276, “Critical role of ROCK1 in AD pathogenesis via controlling lysosomal biogenesis and acidification” (Translational Neurodegeneration, 2024) come the findings set out here.

This assay addresses T1, TFEB (purified protein coupled to the SPR chip) (UniProt P19484 1-476).
T1 chain: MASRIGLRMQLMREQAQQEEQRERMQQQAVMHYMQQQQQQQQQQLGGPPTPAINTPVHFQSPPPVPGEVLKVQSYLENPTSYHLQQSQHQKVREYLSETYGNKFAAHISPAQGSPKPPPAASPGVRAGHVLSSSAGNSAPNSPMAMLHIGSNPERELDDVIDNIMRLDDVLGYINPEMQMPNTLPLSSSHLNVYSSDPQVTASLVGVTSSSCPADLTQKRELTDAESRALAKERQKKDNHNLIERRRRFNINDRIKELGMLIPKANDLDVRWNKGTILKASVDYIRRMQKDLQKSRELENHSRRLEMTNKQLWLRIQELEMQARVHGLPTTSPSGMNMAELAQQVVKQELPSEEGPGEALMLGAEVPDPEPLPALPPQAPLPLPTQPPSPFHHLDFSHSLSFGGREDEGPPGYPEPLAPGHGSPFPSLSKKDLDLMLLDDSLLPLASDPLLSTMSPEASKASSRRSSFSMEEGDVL
In words: SPR; TFEB immobilised on a CM5 chip by amine coupling; ROCK1 injected at 312.5 to 5000 nM for 90 s; Biacore T200. The conditions noted are these: both partners purified. For orientation: SPR reads the build-up and loss of mass on a sensor chip optically.

B1: ROCK1 (protein injected in SPR) (enzyme)
chain: STGDSFETRFEKMDNLLRDPKSEVNSDCLLDGLDALVYDLDFPALRKNKNIDNFLSRYKDTINKIRDLRMKAEDYEVVKVIGRGAFGEVQLVRHKSTRKVYAMKLLSKFEMIKRSDSAFFWEERDIMAFANSPWVVQLFYAFQDDRYLYMVMEYMPGGDLVNLMSNYDVPEKWARFYTAEVVLALDAIHSMGFIHRDVKPDNMLLDKSGHLKLADFGTCMKMNKEGMVRCDTAVGTPDYISPEVLKSQGGDGYYGRECDWWSVGVFLYEMLVGDTPFYADSLVGTYSKIMNHKNSLTFPDDNDISKEAKNLICAFLTDREVRLGRNGVEEIKRHLFFKNDQWAWETLRDTVAPVVPDLSSDIDTSNFDDLEEDKGEEETFPIPKAFVGNQLPFVGFTYYSNRRYLSSANPNDNRTSSNADKSLQESLQKTIYKLEEQLHNEMQLKDEMEQKCRTSNIKLDKIMKELDEEGNQRRNLESTVSQIEKEKMLLQHRINEYQRKAEQENEKRRNVENEVSTLKDQLEDLKKVSQNSQLANEKLSQLQKQLEEANDLLRTESDTAVRLRKSHTEMSKSISQLESLNRELQERNRILENSKSQTDKDYYQLQAILEAERRDRGHDSEMIGDLQARITSLQEEVKHLKHNLEKVEGERKEAQDMLNHSEKEKNNLEIDLNYKLKSLQQRLEQEVNEHKVTKARLTDKHQSIEEAKSVAMCEMEKKLKEEREAREKAENRVVQIEKQCSMLDVDLKQSQQKLEHLTGNKERMEDEVKNLTLQLEQESNKRLLLQNELKTQAFEADNLKGLEKQMKQEINTLLEAKRLLEFELAQLTKQYRGNEGQMRELQDQLEAEQYFSTLYKTQVKELKEEIEEKNRENLKKIQELQNEKETLATQLDLAETKAESEQLARGLLEEQYFELTQESKKAASRNRQEITDKDHTVSRLEEANSMLTKDIEILRRENEELTEKMKKAEEEYKLEKEEEISNLKAAFEKNINTERTLKTQAVNKLAEIMNRKDFKIDRKKANTQDLRKKEKENRKLQLELNQEREKFNQMVVKHQKELNDMQAQLVEECAHRNELQMQLASKESDIEQLRAKLLDLSDSTSVASFPSADETDGNLPESRIEGWLSVPNRGNIKRYGWKKQYVVVSSKKILFYNDEQDKEQSNPSMVLDIDKLFHVRPVTQGDVYRAETEEIPKIFQILYANEGECRKDVEMEPVQQAEKTNFQNHKGHEFIPTLYHFPANCDACAKPLWHVFKPPPALECRRCHVKCHRDHLDKKEDLICPCKVSYDVTSARDMLLLACSQDEQKKWVTHLVKKIPKNPPSGFVRASPRTLSTRSTANQSFRKVVKNTSGKTS
Take B1: the Kd (commonly the constant that tells how readily two partners part at equilibrium) is 1610 nM.
